Experimental data reported in US20110190218A1 (KARLSRUHE INSTITUTE OF TECHNOLOGY, published 2011).

Target: GST-Bag-1L-(202-345) (human, UniProt P08515 1-218 = GST; Q99933 202-345)
Experiment: GST pull-down from lysates of Bag-1L-transfected cells, immunoblot with Bag-1L specific antibody

B1: Bag-1L (in lysates from Bag-1L-transfected cells) (other)
chain: MAQRGGARRPRGDRERLGSRLRALRPGREPRQSEPPAQRGPPPSGRPPARSTASGHDRPTRGAAAGARRPRMKKKTRRRSTRSEELTRSEELTLSEEATWSEEATQSEEATQGEEMNRSQEVTRDEESTRSEEVTREEMAAAGLTVTVTHSNEKHDLHVTSQQGSSEPVVQDLAQVVEEVIGVPQSFQKLIFKGKSLKEMETPLSALGIQDGCRVMLIGKKNSPQEEVELKKLKHLEKSVEKIADQLEELNKELTGIQQGFLPKDLQAEALCKLDRRVKATIEQFMKILEEIDTLILPENFKDSRLKRKGLVKKVQAFLAECDTVEQNICQETERLQSTNFALAE
notes: Untagged Bag-1L as the soluble partner in the test for dimerization; also called human Bag-1L; p50
binding result: no binding
